Experimental data published in patent US20230250154A1 (CYTONICS, published 2023).

Tests used:
Assay in all cases: cell-based or functional assay
ADAMTS4 = target: T1, ADAMTS4 (human, UniProt O75173 213-685, limits assumed)
T1 sequence (looked up): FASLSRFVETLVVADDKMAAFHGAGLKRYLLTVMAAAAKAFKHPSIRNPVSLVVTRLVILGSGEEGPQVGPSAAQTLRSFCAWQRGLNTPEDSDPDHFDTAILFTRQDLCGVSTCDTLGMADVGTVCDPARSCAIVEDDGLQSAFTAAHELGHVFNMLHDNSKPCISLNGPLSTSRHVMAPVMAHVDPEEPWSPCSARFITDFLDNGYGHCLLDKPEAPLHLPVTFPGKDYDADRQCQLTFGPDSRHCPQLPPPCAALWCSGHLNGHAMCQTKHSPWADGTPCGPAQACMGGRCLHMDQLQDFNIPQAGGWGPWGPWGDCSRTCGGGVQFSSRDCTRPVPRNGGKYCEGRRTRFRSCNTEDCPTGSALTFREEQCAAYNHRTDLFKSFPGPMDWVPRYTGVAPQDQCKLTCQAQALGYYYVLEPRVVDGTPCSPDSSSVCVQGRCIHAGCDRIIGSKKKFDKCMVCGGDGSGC

ADAMTS5 = target: T2, ADAMTS5 (human, UniProt Q9UNA0 262-622, limits assumed)
T2 sequence (looked up): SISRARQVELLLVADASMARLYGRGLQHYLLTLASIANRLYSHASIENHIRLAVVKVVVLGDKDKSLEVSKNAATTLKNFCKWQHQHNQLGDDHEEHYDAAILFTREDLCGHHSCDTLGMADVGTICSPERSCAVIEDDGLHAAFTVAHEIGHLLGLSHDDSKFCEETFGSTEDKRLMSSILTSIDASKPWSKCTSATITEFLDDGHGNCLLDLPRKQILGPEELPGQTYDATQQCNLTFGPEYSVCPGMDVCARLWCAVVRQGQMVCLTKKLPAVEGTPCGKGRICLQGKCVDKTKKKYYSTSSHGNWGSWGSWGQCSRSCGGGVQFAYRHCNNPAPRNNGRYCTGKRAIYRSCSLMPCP

MMP13 = MMP13 (human, UniProt P45452 104-471, limits assumed)

| Binder | Protease Inhibition (% of WT) (ADAMTS4) | Protease Inhibition (% of WT) (ADAMTS5) | Protease Inhibition (% of WT) (MMP13) |
| --- | --- | --- | --- |
| Variant A2M, bait region SEQ ID NO 88 (other) SVSGKPQYMVLVPSLLHTETTEKGCVLLSYLNETVTVSASLESVRGNRSLFTDLEAENDVLHCVAFAVPKSSSNEEVMFLTVQVKGPTQEFKKRTTVMVKNEDSLVFVQTDKSIYKPGQTVKFRVVSMDENFHPLNELIPLVYIQDPKGNRIAQWQSFQLEGGLKQFSFPLSSEPFQGSYKVVVQKKSGGRTEHPFTVEEFVLPKFEVQVTVPKIITILEEEMNVSVCGLYTYGKPVPGHVTVSICRKYSDASDCHGEDSQAFCEKFSGQLNSHGCFYQQVKTKVFQLKRKEYEMKLHTEAQIQEEGTVVELTGRQSSEITRTITKLSFVKVDSHFRQGIPFFGQVRLVDGKGVPIPNKVIFIRGNEANYYSNATTDEHGLVQFSINTTNVMGTSLTVRVNYKDRSPCYGYQWVSEEHEEAHHTAYLVFSPSKSFVHLEPMSHELPCGHTQTVQAHYILNGGTLLGLKKLSFYYLIMAKGGIVRTGTHGLLVKQEDMKGHFSISIPVKSDIAPVARLLIYAVLPTGDVIGDSAKYDVENCLANKVDLSFSPSQSLPASHAHLRVTAAPQSVCALRAVDQSVLLMKPDAELSASSVYNLLPEKDLTGFPGPLNDQDDEDCINRHNVYINGITYTPVSSTNEKDMYSFLEDMGLKAFTNSKIRKPKMCPQLEQYEMHGPEGLRVGIPENFFGVFYESDVMGRGHARLVHVEEPHTKLLRKYFPETWIWDLVVVNSAGVAEVGVTVPDTITEWKAGAFCLSEDAGLGISSTASLRAFQPFFVELTMPYSVIRGEAFTLKATVLNYLPKCIRVSVQLEASPAFLAVPVEKEQAPHCICANGRQTVSWAVTPKSLGNVNFTVSAEALESQELCGTEVPSVPEHGRKDTVIKPLLVEPEGLEKETTFNSLLCPSGGEVSEELSLKLPPNVVEESARASVSVLGDILGSAMQNTQNLLQMPYGCGEQNMVLFAPNIYVLDYLNETQQLTPEIKSKAIGYLNTGYQRQLNYKHYDGSYSTFGERYGRNQGNTWLTAFVLKTFAQARAYIFIDEAHITQALIWLSQRQKDNGCFRSSGSLLNNAIKGGVEDEVTLSAYITIALLEIPLTVTHPVVRNALFCLESAWKTAQEGDHGSHVYTKALLAYAFALAGNQDKRKEVLKSLNEEAVKKDNSVHWERPQKPKAPVGHFYEPQAPSAEVEMTSYVLLAYLTAQPAPTSEDLTSATNIVKWITKQQNAQGGFSSTQDTVVALHALSKYGAATFTRTGKAAQVTIQSSGTFSSKFQVDNNNRLLLQQVSLPELPGEYSMKVTGEGCVYLQTSLKYNILPEKEEFPFALGVQTLPQTCDEPKAHTSFQISLSVSYTGSRSASNMAIVDVKMVSGFIPLKPTVKMLERSNHVSRTEVSSNHVLIYLDKVSNQTLSLFFTVLQDVPVRDLKPAIVKVYDYYETDEFAIAEYNAPCSKDLGNADYKDDDDKGASHHHHHH | 68 % of WT | 108 % of WT | 156 % of WT |
| Variant A2M, bait region SEQ ID NO 85 (other) SVSGKPQYMVLVPSLLHTETTEKGCVLLSYLNETVTVSASLESVRGNRSLFTDLEAENDVLHCVAFAVPKSSSNEEVMFLTVQVKGPTQEFKKRTTVMVKNEDSLVFVQTDKSIYKPGQTVKFRVVSMDENFHPLNELIPLVYIQDPKGNRIAQWQSFQLEGGLKQFSFPLSSEPFQGSYKVVVQKKSGGRTEHPFTVEEFVLPKFEVQVTVPKIITILEEEMNVSVCGLYTYGKPVPGHVTVSICRKYSDASDCHGEDSQAFCEKFSGQLNSHGCFYQQVKTKVFQLKRKEYEMKLHTEAQIQEEGTVVELTGRQSSEITRTITKLSFVKVDSHFRQGIPFFGQVRLVDGKGVPIPNKVIFIRGNEANYYSNATTDEHGLVQFSINTTNVMGTSLTVRVNYKDRSPCYGYQWVSEEHEEAHHTAYLVFSPSKSFVHLEPMSHELPCGHTQTVQAHYILNGGTLLGLKKLSFYYLIMAKGGIVRTGTHGLLVKQEDMKGHFSISIPVKSDIAPVARLLIYAVLPTGDVIGDSAKYDVENCLANKVDLSFSPSQSLPASHAHLRVTAAPQSVCALRAVDQSVLLMKPDAELSASSVYNLLPEKDLTGFPGPLNDQDDEDCINRHNVYINGITYTPVSSTNEKDMYSFLEDMGLKAFTNSKIRKPKMCPQLEQYEMHGPEGLRVGIPENFFGVSELEGRGSKEEEGLGSKLRKYFPETWIWDLVVVNSAGVAEVGVTVPDTITEWKAGAFCLSEDAGLGISSTASLRAFQPFFVELTMPYSVIRGEAFTLKATVLNYLPKCIRVSVQLEASPAFLAVPVEKEQAPHCICANGRQTVSWAVTPKSLGNVNFTVSAEALESQELCGTEVPSVPEHGRKDTVIKPLLVEPEGLEKETTFNSLLCPSGGEVSEELSLKLPPNVVEESARASVSVLGDILGSAMQNTQNLLQMPYGCGEQNMVLFAPNIYVLDYLNETQQLTPEIKSKAIGYLNTGYQRQLNYKHYDGSYSTFGERYGRNQGNTWLTAFVLKTFAQARAYIFIDEAHITQALIWLSQRQKDNGCFRSSGSLLNNAIKGGVEDEVTLSAYITIALLEIPLTVTHPVVRNALFCLESAWKTAQEGDHGSHVYTKALLAYAFALAGNQDKRKEVLKSLNEEAVKKDNSVHWERPQKPKAPVGHFYEPQAPSAEVEMTSYVLLAYLTAQPAPTSEDLTSATNIVKWITKQQNAQGGFSSTQDTVVALHALSKYGAATFTRTGKAAQVTIQSSGTFSSKFQVDNNNRLLLQQVSLPELPGEYSMKVTGEGCVYLQTSLKYNILPEKEEFPFALGVQTLPQTCDEPKAHTSFQISLSVSYTGSRSASNMAIVDVKMVSGFIPLKPTVKMLERSNHVSRTEVSSNHVLIYLDKVSNQTLSLFFTVLQDVPVRDLKPAIVKVYDYYETDEFAIAEYNAPCSKDLGNADYKDDDDKGASHHHHHH | 78 % of WT | 174 % of WT | 170 % of WT |
| Variant A2M, bait region SEQ ID NO 86 (other) SVSGKPQYMVLVPSLLHTETTEKGCVLLSYLNETVTVSASLESVRGNRSLFTDLEAENDVLHCVAFAVPKSSSNEEVMFLTVQVKGPTQEFKKRTTVMVKNEDSLVFVQTDKSIYKPGQTVKFRVVSMDENFHPLNELIPLVYIQDPKGNRIAQWQSFQLEGGLKQFSFPLSSEPFQGSYKVVVQKKSGGRTEHPFTVEEFVLPKFEVQVTVPKIITILEEEMNVSVCGLYTYGKPVPGHVTVSICRKYSDASDCHGEDSQAFCEKFSGQLNSHGCFYQQVKTKVFQLKRKEYEMKLHTEAQIQEEGTVVELTGRQSSEITRTITKLSFVKVDSHFRQGIPFFGQVRLVDGKGVPIPNKVIFIRGNEANYYSNATTDEHGLVQFSINTTNVMGTSLTVRVNYKDRSPCYGYQWVSEEHEEAHHTAYLVFSPSKSFVHLEPMSHELPCGHTQTVQAHYILNGGTLLGLKKLSFYYLIMAKGGIVRTGTHGLLVKQEDMKGHFSISIPVKSDIAPVARLLIYAVLPTGDVIGDSAKYDVENCLANKVDLSFSPSQSLPASHAHLRVTAAPQSVCALRAVDQSVLLMKPDAELSASSVYNLLPEKDLTGFPGPLNDQDDEDCINRHNVYINGITYTPVSSTNEKDMYSFLEDMGLKAFTNSKIRKPKMCPQLEQYEMHGPEGLRVGSELEGRGSKEEEGLGSIPENFFGVKLRKYFPETWIWDLVVVNSAGVAEVGVTVPDTITEWKAGAFCLSEDAGLGISSTASLRAFQPFFVELTMPYSVIRGEAFTLKATVLNYLPKCIRVSVQLEASPAFLAVPVEKEQAPHCICANGRQTVSWAVTPKSLGNVNFTVSAEALESQELCGTEVPSVPEHGRKDTVIKPLLVEPEGLEKETTFNSLLCPSGGEVSEELSLKLPPNVVEESARASVSVLGDILGSAMQNTQNLLQMPYGCGEQNMVLFAPNIYVLDYLNETQQLTPEIKSKAIGYLNTGYQRQLNYKHYDGSYSTFGERYGRNQGNTWLTAFVLKTFAQARAYIFIDEAHITQALIWLSQRQKDNGCFRSSGSLLNNAIKGGVEDEVTLSAYITIALLEIPLTVTHPVVRNALFCLESAWKTAQEGDHGSHVYTKALLAYAFALAGNQDKRKEVLKSLNEEAVKKDNSVHWERPQKPKAPVGHFYEPQAPSAEVEMTSYVLLAYLTAQPAPTSEDLTSATNIVKWITKQQNAQGGFSSTQDTVVALHALSKYGAATFTRTGKAAQVTIQSSGTFSSKFQVDNNNRLLLQQVSLPELPGEYSMKVTGEGCVYLQTSLKYNILPEKEEFPFALGVQTLPQTCDEPKAHTSFQISLSVSYTGSRSASNMAIVDVKMVSGFIPLKPTVKMLERSNHVSRTEVSSNHVLIYLDKVSNQTLSLFFTVLQDVPVRDLKPAIVKVYDYYETDEFAIAEYNAPCSKDLGNADYKDDDDKGASHHHHHH | 91 % of WT | 74 % of WT | 120 % of WT |
